The results in this text go back to patent US20020131970A1 (Scripps Research, published 2002).

Assay [1] has as its target intercellular adhesion molecule 1 (ICAM-1), the RGD-independent fibrinogen receptor, native, on the surface of cells (HUVEC, JY lymphocytes) (human) (UniProt P05362). The assay can be described thus: 125I-D30 at 10 µg/ml on HUVEC monolayers.
Assay [2] concerns the target recombinant ICAM-1 on the surface of transfected fibroblast-like (COS) cells of Example 4 (human) (UniProt P05362). Briefly: 125I-D30 on ICAM-1 transfected cells, with CaCl2, no inhibitor.
Assay [3] shares this target. Briefly: 125I-D30 on ICAM-1 transfected cells, with MnCl2, no inhibitor.
For assay [4], the target named is T1, intercellular adhesion molecule 1 (ICAM-1), the RGD-independent fibrinogen receptor, native, on the surface … (human, UniProt P05362 28-532).
T1 construct: whole, on cells; assays on HUVEC monolayers are written against this molecule; also called ECR; endothelial cell receptor
T1 sequence (P05362 28-532): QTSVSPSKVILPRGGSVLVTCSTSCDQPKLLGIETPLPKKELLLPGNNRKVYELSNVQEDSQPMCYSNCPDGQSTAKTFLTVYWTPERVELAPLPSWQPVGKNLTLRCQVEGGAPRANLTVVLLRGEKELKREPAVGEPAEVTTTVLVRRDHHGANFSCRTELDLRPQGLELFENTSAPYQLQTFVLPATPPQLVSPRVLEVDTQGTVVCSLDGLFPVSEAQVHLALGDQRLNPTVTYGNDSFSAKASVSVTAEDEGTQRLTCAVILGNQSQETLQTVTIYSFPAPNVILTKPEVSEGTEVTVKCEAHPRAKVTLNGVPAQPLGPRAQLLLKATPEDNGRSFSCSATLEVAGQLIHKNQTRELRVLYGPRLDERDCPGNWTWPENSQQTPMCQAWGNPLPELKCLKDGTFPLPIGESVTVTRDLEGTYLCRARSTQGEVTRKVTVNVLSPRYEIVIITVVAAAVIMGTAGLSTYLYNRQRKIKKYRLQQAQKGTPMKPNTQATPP
Briefly: adhesion of 51Cr-labelled ICAM-1+ JY lymphocytes to peptide-coated wells.

Assay [5] addresses T1, intercellular adhesion molecule 1 …. Briefly: adhesion of 51Cr-labelled ICAM-1+ JY lymphocytes to wells coated with 1-100 µg/ml peptide. The method, then:
Serum-free suspensions of JY lymphocytes were labeled with 0.5 mCi ⁵¹Cr (Na₂CrO₄, specific activity 487.4 mCi/mg, E. I., DuPont de Nemours, Wilmington, Del.) for 2 h at 37° C., with a final incorporation of 0.2-4 cpm/cell (Languino, et al., supra). Aliquots of ⁵¹Cr-labeled JY lymphocytes at 1×10⁶/ml were added to peptide-coated wells for 45 min at 37° C., washed, solubilized in 20% SDS, and radioactivity associated under the various conditions was determined in a scintillation beta-counter. The number of attached cells was quantitated by dividing the cpm harvested by the cpm/cell. Data are the mean ± S.D. of two independent experiments.
The specific binding of radiolabelled ICAM-1⁺ JY lymphocytes to increasing concentrations of γ3 was measured to characterize the ICAM-1 binding site. The number of attached cells is plotted on the Y-axis against peptide concentration (μg/ml) plotted on the X-axis.

Chain of recombinant ICAM-1 on the surface of transfected fibroblast-like (COS) cells of Example 4 (human) (P05362 28-532): as above
Chain of intercellular adhesion molecule 1 (ICAM-1), the RGD-independent fibrinogen receptor, native, on the surface of cells (HUVEC, JY lymphocytes) (human) (P05362 28-532): as above

As for “D30 fragment of fibrinogen (30 kD plasmin digestion product of fragment D) (from UniProt P02671 155-225; P02675 164-250)”, the figures for the cpm bound in assay [1], in assay [2] and in assay [3] were 60000 cpm, 3000 cpm and 7500 cpm, respectively.

B1: polypeptide L10, fibrinogen γ chain residues 402-411 (peptide)
peptide: LGGAKQAGDV
notes: also called control peptide L10; irrelevant polypeptide L10
With B1, in assay [4], the binding result is “no binding (tested: 1-100 µg/ml coating)”.

B2: polypeptide γ3, fibrinogen γ chain residues 117-133 (peptide)
peptide: NNQKIVNLKEKVAQLEA
notes: Coated on plates in the JY adhesion assays; also called γ3 polypeptide; unlabeled γ3 peptide
Turning to B2, the binding result in assay [5] is recorded as “binds”.
